Source: patent US20240294614A1 (ACADEMY OF MILITARY MEDICAL SCIENCE PLA, published 2024)
Like-named read-outs stand apart in the source and are kept apart here.

Legend:
[1] = biological target: T1, Nipah virus Malaysia strain glycoprotein G (Nipah virus, Malaysia strain (NiV-MY), UniProt Q9IH62 71-602); assay: ELISA, G protein coated at 1 µg/mL, antibody 1:3 dilutions from 20 µg/mL
T1 sequence: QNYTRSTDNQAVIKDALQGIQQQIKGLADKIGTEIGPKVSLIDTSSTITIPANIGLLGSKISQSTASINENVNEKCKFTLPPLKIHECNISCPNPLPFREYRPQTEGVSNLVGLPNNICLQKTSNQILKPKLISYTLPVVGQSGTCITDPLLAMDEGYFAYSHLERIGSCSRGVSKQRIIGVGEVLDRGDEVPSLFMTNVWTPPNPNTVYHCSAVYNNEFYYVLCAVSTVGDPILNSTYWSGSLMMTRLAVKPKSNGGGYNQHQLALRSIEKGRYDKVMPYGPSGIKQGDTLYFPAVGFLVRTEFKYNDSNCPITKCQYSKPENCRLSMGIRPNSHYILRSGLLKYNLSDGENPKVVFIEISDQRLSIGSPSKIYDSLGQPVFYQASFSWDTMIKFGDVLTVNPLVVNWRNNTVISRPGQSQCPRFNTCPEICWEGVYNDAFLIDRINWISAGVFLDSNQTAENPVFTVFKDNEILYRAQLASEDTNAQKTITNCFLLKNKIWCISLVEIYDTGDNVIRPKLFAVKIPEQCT

[2] = biological target: T2, Hendra virus glycoprotein G (Hendra virus (HeV), UniProt O89343 71-604); assay: as above
T2 sequence: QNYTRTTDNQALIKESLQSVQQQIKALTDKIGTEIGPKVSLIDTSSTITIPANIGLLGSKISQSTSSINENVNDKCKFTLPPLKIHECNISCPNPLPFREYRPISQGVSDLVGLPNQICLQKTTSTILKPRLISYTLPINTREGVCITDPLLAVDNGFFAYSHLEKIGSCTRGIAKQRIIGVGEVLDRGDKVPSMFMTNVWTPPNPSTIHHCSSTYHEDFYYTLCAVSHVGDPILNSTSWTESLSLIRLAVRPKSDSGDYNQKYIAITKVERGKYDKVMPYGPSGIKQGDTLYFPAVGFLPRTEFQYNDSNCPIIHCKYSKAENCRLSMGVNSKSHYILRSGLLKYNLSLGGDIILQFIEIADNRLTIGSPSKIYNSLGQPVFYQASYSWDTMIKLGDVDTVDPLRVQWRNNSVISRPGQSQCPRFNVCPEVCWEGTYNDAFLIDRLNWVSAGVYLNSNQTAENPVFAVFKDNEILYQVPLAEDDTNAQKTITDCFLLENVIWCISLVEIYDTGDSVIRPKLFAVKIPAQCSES

[3] = biological target: Nipah virus Bangladesh strain glycoprotein G (Nipah virus, Bangladesh strain (NiV-BD)); assay: cell-based or functional assay
[4] = biological target: Nipah virus Bangladesh strain glycoprotein G (Nipah virus, Bangladesh strain (NiV-BD)); assay: ELISA, G protein coated at 1 µg/mL, antibody 1:3 dilutions from 20 µg/mL
[5] = biological target: T1, Nipah virus Malaysia strain …; assay: cell-based or functional assay
[6] = biological target: T2, Hendra virus glycoprotein G; assay: cell-based or functional assay
[7] = biological target: Nipah virus Bangladesh strain glycoprotein G (Nipah virus, Bangladesh strain (NiV-BD))
[8] = biological target: Nipah virus Bangladesh strain glycoprotein G (Nipah virus, Bangladesh strain (NiV-BD)); remark: listed apart in the source
[9] = biological target: T1, Nipah virus Malaysia strain …
[10] = biological target: T2, Hendra virus glycoprotein G
[11] = biological target: Nipah virus Bangladesh strain glycoprotein G (Nipah virus, Bangladesh strain (NiV-BD)); remark: listed apart in the source
[12] = biological target: T1, Nipah virus Malaysia strain …; remark: listed apart in the source
[13] = biological target: T2, Hendra virus glycoprotein G; remark: listed apart in the source
[14] = biological target: T1, Nipah virus Malaysia strain …; remark: listed apart in the source

B1: 2E7 (antibody, V domains shown)
VH: VQLQESGPGLVKPSETLSLTCSVSGGSISISNWWSWIRQSPGKGLEWIGYIYGSSGSTLYNPSLKSRVSISTDTSKNQFSLKLRSVTAADTAVYYCASPSIAATGDFDYWGQGVLVTVSS
VL: QSVLTQPPSASGAPGQSVTISCSGSSSNIGGNNVYWYQQLPGTAPKLLIYSSNQRPSGVPDRFSGSKSGTSASLAITGLRSEDEADYFCAVWDDSLGSPFFGGGTRLTVLR
notes: copies: 2 + 2
B1 was tested, and the EC50 [1] was 0.0267 µg/mL and the EC50 [2] was 0.0701 µg/mL.

B2: 1B6 (antibody, V domains shown)
VH: VQLQESGPGPVKPSETLSLTCTVSGGSMSRGYDWNWIRQPPGKGLEWIGYIGDDGGRSNYNPSLKSRVTISKDSSKNQFSLKLGSVSAADTAVYYCARALRAIWYNSGWFYNSLDVWGRGVLVTVSS
VL: DIVLTQSPASLAVSPGQRATITCRASEGVSVFGRDLIHWYQQKPGQPPKLLIYQTSNRDTGVPARFSGSGSGTDFTLTINPVEADDAADYYCLQSKNSYSFGQGTKVEIKT
B2 was tested, and the percent neutralisation of NiV-BD pseudovirus at 1 µg/mL [3] was 100%, the EC50 [4] was 0.0284 µg/mL and the “percent neutralisation of NiV-MY pseudovirus at 1 µg/mL” value [5] was roughly 100%. The “IC50, neutralisation of HeV pseudovirus (HIV backbone, luciferase, 293T cells)” value (shortened to “IC50, neutralisation of HeV pseudovirus”) [6] was 0.0163 µg/mL, the “percent neutralisation of HeV pseudovirus at 1 µg/mL” value [6] was roughly 100% and the EC50 [1] was 0.0639 µg/mL. For the same binder, the EC50 [2] was 0.0529 µg/mL.

B3: 1E5 (antibody, V domains shown)
VH: VQLQESGPGVVKPSETLSLTCAVSGGSISDTYRWSWIRQPPGKGLEWIGYIYGSATSTYYNPSLSSRVTISKDMSKNQFSLNLNSVTAADTAVYYCARDYQYYYSGSYPTPHNWFDVWGPGVLVTVSS
VL: DIQMTQSPSSLSASVGDRVTITCRASQGIIDYLSWYQQKPGKAPKLLISTASNLESGVPSRFSGSGSGTEFTLTISSLQPEDFATYSCLQGYTTPYTFGQGTKVEIKT
For B3, the percent neutralisation of NiV-BD pseudovirus at 1 µg/mL [3] was 100%, the IC50 (read off the curve) [7] was 0.06 µg/mL and the Kd [8] was 171 pM. The EC50 [4] was 0.0026 µg/mL, the “IC50 (read off the curve)” value [9] was roughly 0.06 µg/mL and the “IC50 (read off the curve)” value [10] was roughly 0.2 µg/mL. The “percent neutralisation of NiV-MY pseudovirus at 1 µg/mL” value [5] was roughly 100%, the “IC50, neutralisation of HeV pseudovirus” value [6] was 0.00574 µg/mL and the “percent neutralisation of HeV pseudovirus at 1 µg/mL” value [6] was roughly 100%. The IC50 (read off the curve) [11] was 0.04 µg/mL, the Kd [12] was less than 1 pM and the Kd [13] was 785 pM. The “IC50 (read off the curve)” value [14] was roughly 0.1 µg/mL, the EC50 [1] was 0.00085 µg/mL and the EC50 [2] was 0.00034 µg/mL.

B4: 2A4 (antibody, V domains shown)
VH: QVQLQESGPGLVKPSETLSLTCPVSGASISSHWWTWIRQPPGKGLEWIGEIHGNSGSTNYNPSLKSRVTISKDASKNHFSLKLSSVTAADTAVYYCARDGHLGILVVFATSRFDVWGPGVLVTVSS
VL: DIQMTQSPSSLSASVGDTVTITCQASQGIANNLNWYQQKPGKAPKLLIYRASSLQSGIPSRFSGSGSGTDYTLTISSLQPEDFATYYCQQGYTYPRTFGQGTKVEIKT
For B4, the percent neutralisation of NiV-BD pseudovirus at 1 µg/mL [3] was 100%, the EC50 [4] was 0.0045 µg/mL and the “percent neutralisation of NiV-MY pseudovirus at 1 µg/mL” value [5] was roughly 100%. The “IC50, neutralisation of HeV pseudovirus” value [6] was 0.029 µg/mL, the “percent neutralisation of HeV pseudovirus at 1 µg/mL” value [6] was roughly 100% and the EC50 [1] was 0.0112 µg/mL. It also gave an EC50 [2] of 0.00737 µg/mL.
